Data on two molecules can be found in patent US20140072613A1 (published 2014).

Among the targets are CSK(h) (human, UniProt P41240 1-450); LOK(h) (human, UniProt O94804 1-348, limits assumed); RIPK2(h) (human, UniProt O43353 1-299, limits assumed); WNK3(h) (human, UniProt Q9BYP7 1-434, limits assumed); AMPKα2(h) (human, UniProt P54646 1-552).
Assay in all cases: cell-based or functional assay
A further experiment has as its target T1, ALK4(h) (human, UniProt P36896 150-505, limits assumed).
T1 sequence (looked up): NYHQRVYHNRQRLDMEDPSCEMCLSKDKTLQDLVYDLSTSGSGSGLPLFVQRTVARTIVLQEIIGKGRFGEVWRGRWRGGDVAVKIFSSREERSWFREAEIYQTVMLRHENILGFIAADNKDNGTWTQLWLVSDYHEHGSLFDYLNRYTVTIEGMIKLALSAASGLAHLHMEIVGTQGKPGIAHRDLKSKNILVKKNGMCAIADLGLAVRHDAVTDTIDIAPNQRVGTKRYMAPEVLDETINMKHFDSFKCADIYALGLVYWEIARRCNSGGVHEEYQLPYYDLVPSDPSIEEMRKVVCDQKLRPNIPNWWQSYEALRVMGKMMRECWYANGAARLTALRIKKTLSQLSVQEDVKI

In a further experiment the target is T2, DCAMKL2(h) (human, UniProt Q8N568 372-714, limits assumed).
T2 sequence (looked up): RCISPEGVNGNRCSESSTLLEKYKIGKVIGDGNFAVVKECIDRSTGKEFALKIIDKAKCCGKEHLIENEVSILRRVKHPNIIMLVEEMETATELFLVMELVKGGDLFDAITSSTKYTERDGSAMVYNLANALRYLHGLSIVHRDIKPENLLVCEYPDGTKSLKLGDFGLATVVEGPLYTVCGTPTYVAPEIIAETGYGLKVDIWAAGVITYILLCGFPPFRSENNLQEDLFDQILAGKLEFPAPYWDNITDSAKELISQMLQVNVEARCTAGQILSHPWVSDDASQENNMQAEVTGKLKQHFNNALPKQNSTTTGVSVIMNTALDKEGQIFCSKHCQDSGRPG

For another experiment, the target named is T3, PRAK(h) (human, UniProt Q8IW41 1-473, limits assumed).
T3 sequence (looked up): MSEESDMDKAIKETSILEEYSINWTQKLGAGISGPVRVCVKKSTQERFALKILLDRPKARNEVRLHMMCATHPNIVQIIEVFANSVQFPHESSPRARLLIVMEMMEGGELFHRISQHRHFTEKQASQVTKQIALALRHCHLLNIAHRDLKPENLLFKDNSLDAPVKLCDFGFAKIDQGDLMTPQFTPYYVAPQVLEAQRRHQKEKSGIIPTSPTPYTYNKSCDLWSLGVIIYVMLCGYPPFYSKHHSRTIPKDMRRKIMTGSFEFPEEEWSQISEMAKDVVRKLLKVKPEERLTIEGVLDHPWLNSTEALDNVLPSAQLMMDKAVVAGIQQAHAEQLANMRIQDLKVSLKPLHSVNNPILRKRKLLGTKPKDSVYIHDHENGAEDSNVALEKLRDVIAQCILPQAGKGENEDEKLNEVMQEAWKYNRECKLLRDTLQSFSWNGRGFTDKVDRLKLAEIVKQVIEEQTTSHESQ

For the next experiment, the target named is T4, IKKβ(h) (human, UniProt O14920 1-756).
T4 sequence (looked up): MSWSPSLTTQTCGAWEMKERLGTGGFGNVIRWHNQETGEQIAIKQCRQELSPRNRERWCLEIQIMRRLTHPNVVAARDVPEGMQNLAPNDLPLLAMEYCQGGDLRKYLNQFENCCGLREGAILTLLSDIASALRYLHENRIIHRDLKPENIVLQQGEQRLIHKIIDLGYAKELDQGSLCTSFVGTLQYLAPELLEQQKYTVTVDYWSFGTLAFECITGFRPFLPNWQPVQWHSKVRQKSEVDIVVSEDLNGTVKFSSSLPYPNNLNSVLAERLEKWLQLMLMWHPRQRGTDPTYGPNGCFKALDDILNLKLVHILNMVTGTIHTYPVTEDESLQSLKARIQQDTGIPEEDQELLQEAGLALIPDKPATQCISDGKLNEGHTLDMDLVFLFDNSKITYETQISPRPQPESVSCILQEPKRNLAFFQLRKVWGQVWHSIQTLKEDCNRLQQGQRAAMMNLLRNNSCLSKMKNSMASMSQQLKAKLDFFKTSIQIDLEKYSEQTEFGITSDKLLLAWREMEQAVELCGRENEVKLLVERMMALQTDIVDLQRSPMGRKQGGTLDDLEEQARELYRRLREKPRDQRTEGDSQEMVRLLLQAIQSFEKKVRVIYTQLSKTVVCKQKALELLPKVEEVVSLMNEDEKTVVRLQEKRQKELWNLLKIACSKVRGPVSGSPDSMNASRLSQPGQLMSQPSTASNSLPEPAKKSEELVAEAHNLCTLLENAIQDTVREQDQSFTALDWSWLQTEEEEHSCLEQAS

For a further experiment, the target named is T5, Ron(h) (human, UniProt Q04912 983-1400, limits assumed).
T5 sequence (looked up): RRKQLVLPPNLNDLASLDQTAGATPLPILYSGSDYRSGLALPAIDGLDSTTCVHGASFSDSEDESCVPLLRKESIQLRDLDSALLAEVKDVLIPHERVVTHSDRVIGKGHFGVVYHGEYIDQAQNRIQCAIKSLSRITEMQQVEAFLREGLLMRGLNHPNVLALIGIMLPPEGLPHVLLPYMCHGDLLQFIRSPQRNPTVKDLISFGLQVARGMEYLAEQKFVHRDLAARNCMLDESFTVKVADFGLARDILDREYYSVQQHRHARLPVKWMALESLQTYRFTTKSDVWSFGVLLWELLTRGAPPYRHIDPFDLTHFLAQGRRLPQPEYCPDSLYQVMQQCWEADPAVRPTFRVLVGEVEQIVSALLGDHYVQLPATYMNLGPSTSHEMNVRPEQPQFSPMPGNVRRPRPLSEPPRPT

Chain of LOK(h) (O94804 1-348 limits assumed): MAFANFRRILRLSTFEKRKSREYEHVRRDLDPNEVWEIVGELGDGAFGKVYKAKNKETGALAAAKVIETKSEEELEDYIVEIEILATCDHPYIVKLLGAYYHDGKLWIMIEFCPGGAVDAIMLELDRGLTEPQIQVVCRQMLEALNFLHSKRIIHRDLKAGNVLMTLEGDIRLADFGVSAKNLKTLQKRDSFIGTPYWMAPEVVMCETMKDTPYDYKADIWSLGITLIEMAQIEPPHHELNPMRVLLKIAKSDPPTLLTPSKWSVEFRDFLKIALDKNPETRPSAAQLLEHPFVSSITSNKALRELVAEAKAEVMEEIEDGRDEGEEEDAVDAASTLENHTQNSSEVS
Chain of WNK3(h) (Q9BYP7 1-434 limits assumed): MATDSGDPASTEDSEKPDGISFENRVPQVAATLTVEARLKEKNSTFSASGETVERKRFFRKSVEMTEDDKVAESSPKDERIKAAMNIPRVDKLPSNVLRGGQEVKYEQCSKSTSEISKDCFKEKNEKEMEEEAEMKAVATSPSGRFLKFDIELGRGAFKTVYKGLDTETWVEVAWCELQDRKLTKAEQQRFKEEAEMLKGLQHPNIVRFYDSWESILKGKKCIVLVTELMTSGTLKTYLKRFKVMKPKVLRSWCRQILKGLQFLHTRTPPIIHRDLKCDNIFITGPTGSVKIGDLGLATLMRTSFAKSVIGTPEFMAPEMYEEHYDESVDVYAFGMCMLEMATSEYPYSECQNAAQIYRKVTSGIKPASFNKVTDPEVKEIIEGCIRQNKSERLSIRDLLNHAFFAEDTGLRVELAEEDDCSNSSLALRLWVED
Chain of CSK(h) (P41240 whole entry): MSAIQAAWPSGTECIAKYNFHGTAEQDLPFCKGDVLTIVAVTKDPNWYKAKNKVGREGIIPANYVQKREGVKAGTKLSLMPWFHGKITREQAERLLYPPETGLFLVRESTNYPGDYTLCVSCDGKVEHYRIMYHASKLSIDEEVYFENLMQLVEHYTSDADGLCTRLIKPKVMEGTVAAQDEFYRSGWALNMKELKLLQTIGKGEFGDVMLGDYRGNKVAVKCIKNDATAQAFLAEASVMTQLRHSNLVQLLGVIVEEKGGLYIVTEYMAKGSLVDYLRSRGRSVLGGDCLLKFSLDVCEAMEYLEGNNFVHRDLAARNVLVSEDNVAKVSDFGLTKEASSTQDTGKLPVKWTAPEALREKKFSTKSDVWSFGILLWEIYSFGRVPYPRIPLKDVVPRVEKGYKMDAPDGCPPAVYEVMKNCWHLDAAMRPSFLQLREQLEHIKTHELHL
Chain of RIPK2(h) (O43353 1-299 limits assumed): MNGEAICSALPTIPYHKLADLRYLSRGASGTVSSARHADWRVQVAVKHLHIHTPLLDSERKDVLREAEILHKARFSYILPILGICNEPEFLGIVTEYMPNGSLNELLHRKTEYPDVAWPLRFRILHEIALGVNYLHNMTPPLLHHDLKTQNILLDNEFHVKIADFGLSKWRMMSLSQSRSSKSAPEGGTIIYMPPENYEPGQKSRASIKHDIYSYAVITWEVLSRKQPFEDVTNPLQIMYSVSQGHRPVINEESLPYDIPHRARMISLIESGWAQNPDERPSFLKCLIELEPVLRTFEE
Chain of AMPKα2(h) (P54646 whole entry): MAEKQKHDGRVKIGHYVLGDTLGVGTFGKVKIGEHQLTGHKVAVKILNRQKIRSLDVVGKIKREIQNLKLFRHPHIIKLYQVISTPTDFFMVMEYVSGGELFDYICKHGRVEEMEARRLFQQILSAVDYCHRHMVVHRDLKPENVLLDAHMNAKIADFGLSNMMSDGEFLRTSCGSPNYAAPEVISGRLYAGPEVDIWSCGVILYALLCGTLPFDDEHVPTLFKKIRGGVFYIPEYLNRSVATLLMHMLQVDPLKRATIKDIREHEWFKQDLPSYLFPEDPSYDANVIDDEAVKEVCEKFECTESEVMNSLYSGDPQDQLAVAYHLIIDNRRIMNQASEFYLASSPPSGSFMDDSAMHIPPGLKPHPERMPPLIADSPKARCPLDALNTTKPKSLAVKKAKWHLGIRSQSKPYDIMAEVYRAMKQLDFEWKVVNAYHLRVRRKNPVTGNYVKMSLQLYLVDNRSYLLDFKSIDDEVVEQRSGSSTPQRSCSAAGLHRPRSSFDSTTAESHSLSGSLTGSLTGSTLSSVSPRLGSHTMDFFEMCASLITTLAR

Turning to KAFAKLAARLYRKALARQLGVAA [MMI-0400], the “% activity, 100 µM” value with ALK4(h) was found to be 130%; in the experiment with DCAMKL2(h), 70%; with CSK(h), 16%; with LOK(h) it was 18%; in the experiment with RIPK2(h), 98%; with PRAK(h), 118%. Besides, the “% activity, 100 µM” value with IKKβ(h) stood at 84%; in the experiment with Ron(h) it was 79%; with WNK3(h), 74%; with AMPKα2(h), 58%.
For the molecule FAKLAARLYRKALARQLGVAA [MMI-0300], the “% activity, 100 µM” value was determined as 140% with ALK4(h); 81% with DCAMKL2(h); 49% with CSK(h); 37% with LOK(h); 97% with RIPK2(h); 128% with PRAK(h). In addition, the “% activity, 100 µM” value with IKKβ(h) was 84%; in the experiment with Ron(h), 93%; with WNK3(h), 77%; with AMPKα2(h) it was 54%.
